Assay results reported in article PMC3458555 (Nucleic Acids Research, 2012).
Like-named read-outs stand apart in the source and are kept apart here.

Key:
[1] = target: Zfp206SCANΔH1–Zfp110SCAN fusion protein (not stated | mouse) (UniProt Q3URR7); experiment: SEC
[2] = target: Zfp206SCAN–Zfp110SCAN ΔH1 fusion protein (not stated | mouse) (UniProt Q3URR7); experiment: SEC
[3] = target: the molecule itself; experiment: SEC
[4] = target: the molecule itself
[5] = target: the molecule itself; experiment: SEC; remark: listed apart in the source

Molecule: Zfp206SCANΔH1–Zfp110SCAN fusion protein (from UniProt Q3URR7 36-128)
- stoichiometry N [1]: 2

Molecule: Zfp206SCAN–Zfp110SCAN ΔH1 fusion protein (from UniProt Q3URR7 36-128)
- stoichiometry N [2]: 2

B1: Zfp206SCAN (SCAN domain of Zfp206, tag-free) (domain or fragment)
chain: GRPRPEVAHQLFRCFQYQEDMGPRASLGRLRELCNHWLRPALHTKKQILELLVLEQFLSVLPPHVLSRLHGAPLRDGEEVAQLEGVPRDISHM
- stoichiometry N [3]: 2

B2: MBP-Zfp206SCAN (domain or fragment)
chain: GRPRPEVAHQLFRCFQYQEDMGPRASLGRLRELCNHWLRPALHTKKQILELLVLEQFLSVLPPHVLSRLHGAPLRDGEEVAQLEGVPRDISHM
- stoichiometry N [4]: 2

B3: Zfp206SCAN–ZNF174SCAN fusion protein (other)
chain: RPRPEVAHQLFRCFQYQEDMGPRASLGRLRELCNHWLRPALHTKKQILELLVLEQFLSVLPPHVLSRLHGQPLRDGEEVVQLLEGVPRDISHMRQGFRHFCYQEVSGPQEALSCLQQLCRQWLQPELHTKEQILELLVMEQFLVILPPEIQAQVWHRYPKSSREIVTLVEDLHR
- stoichiometry N [5]: 2

B4: Zfp110SCAN (SCAN domain of Zfp110) (domain or fragment, mouse, UniProt A0A0R4J249 154-247, looked up)
chain: RLTDTEASRQKFRHFQYEESAGPQKAMSQLRKLCHQWLQPNTRSKKQILELLVLEQFLNALPEKFRVWVESQHPEDCKAVVALLENMTSVSKDD
- stoichiometry N [3]: 2
